Experiments:
c-Src SH2 = test: SH2 binding enrichment of the phosphorylated peptide, bacterial display (enrichment ratio); higher = better substrate or ligand; peptides without Tyr show the background
Grb2 SH2 = Grb2 SH2 (UniProt P62993); test: as above
SHP2-C SH2 = test: as above
EPHB1 = EPHB1 (UniProt P54762); test: phosphorylation enrichment, bacterial display (enrichment ratio); higher = better substrate or ligand; peptides without Tyr show the background
Fyn = Fyn (UniProt P06241); test: as above
FGFR1 = FGFR1 (UniProt P11362); test: as above
AncSZ = test: as above
c-Src = test: as above
Jak2 = Jak2 (UniProt O60674); test: as above
Hck = Hck (UniProt P08631); test: as above
EPHB2 = EPHB2 (UniProt P29323); test: as above
Fes = Fes (UniProt P07332); test: as above
MERTK = MERTK (UniProt Q12866); test: as above
FGFR3 = FGFR3 (UniProt P22607); test: as above
Fer (mouse) = test: as above
c-Abl (mouse) = test: as above
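Throughout, for SH2 binding enrichment of the phosphorylated peptide, bacterial display: peptide library displayed on the E. coli surface as eCPX fusions, selected cells deep-sequenced, score is each peptide's frequency after selection divided by its frequency in the input.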
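Throughout, for phosphorylation enrichment, bacterial display: 11-residue human phosphosite peptides and single-mutation variants displayed on the E. coli surface, counted by deep sequencing, each peptide's frequency after selection divided by its frequency in the unselected input library; frequency after pTyr selection over input frequency; kinase dosed for 20-30% of maximal phosphorylation in three min.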

MERTK, sequence (Q12866 whole entry, looked up): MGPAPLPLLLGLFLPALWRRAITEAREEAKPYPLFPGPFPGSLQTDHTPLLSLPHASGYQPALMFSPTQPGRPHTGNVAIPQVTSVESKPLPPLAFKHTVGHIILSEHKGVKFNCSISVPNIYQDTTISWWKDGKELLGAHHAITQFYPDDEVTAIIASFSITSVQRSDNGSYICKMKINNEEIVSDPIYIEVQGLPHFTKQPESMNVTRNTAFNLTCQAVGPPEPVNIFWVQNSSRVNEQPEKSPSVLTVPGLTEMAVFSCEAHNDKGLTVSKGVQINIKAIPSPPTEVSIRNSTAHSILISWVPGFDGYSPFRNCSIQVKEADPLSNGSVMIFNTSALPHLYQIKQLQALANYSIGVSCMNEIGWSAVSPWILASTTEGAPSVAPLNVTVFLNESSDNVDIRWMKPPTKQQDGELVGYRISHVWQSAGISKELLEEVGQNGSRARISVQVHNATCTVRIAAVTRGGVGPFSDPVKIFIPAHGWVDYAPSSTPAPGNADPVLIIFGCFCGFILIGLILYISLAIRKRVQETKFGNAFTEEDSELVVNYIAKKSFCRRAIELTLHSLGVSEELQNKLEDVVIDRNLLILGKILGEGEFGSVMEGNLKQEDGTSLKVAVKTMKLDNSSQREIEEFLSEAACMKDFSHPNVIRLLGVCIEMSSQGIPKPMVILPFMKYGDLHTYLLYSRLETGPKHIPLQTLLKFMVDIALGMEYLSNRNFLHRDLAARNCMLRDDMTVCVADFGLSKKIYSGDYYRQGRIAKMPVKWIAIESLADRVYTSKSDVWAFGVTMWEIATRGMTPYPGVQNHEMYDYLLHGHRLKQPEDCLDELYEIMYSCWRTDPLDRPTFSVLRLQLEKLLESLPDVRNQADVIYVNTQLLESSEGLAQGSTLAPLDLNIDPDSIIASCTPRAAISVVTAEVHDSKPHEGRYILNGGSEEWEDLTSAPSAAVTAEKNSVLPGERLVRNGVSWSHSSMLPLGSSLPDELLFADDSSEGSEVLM
FGFR3, sequence (P22607 whole entry, looked up): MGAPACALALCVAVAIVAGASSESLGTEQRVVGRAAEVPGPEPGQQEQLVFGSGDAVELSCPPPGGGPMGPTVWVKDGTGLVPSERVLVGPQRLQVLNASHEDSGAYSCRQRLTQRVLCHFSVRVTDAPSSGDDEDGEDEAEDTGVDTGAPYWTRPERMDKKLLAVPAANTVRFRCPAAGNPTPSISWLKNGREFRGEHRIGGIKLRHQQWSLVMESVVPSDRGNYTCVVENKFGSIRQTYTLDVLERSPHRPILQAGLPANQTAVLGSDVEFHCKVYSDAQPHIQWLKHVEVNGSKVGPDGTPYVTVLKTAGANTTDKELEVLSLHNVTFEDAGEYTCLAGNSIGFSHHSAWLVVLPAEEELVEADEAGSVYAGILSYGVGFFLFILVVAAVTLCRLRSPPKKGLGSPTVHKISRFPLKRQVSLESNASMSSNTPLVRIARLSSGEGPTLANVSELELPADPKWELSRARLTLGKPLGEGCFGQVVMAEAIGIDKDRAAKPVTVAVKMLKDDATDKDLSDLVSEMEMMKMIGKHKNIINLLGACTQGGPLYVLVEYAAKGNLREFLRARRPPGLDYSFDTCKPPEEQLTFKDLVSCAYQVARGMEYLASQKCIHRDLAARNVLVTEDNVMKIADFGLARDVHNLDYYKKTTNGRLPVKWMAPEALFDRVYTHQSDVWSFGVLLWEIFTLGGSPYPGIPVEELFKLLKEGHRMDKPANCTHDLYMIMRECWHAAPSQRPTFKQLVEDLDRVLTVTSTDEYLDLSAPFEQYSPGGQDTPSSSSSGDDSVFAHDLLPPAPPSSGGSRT
Hck, sequence (P08631 whole entry, looked up): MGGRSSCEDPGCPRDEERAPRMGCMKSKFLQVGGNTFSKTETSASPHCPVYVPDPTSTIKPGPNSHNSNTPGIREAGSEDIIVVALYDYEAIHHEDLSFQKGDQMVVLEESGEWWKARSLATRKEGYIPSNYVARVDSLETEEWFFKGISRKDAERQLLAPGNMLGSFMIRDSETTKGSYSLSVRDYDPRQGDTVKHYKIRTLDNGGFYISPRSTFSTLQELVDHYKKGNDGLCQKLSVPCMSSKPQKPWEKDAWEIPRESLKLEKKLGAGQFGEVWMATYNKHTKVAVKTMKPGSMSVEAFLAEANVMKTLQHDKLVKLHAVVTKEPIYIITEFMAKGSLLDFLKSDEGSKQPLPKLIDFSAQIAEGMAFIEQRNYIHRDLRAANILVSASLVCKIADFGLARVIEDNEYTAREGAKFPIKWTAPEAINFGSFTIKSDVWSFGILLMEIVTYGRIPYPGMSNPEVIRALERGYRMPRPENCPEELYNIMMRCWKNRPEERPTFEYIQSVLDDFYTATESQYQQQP
Fyn, sequence (P06241 whole entry, looked up): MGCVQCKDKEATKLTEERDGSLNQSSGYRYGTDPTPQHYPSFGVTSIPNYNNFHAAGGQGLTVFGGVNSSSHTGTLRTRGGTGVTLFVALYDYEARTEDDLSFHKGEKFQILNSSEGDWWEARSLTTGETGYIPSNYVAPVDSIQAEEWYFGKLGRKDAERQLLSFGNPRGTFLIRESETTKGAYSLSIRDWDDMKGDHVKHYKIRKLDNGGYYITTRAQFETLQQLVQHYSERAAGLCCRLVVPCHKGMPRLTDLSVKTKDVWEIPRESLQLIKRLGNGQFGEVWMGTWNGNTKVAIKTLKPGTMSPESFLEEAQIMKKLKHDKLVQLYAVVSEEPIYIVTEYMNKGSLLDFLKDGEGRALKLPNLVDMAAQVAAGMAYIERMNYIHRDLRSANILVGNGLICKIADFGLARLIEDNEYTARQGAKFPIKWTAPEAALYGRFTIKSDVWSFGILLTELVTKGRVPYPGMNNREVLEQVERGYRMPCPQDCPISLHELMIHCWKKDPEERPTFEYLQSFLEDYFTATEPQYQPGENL
Fes, sequence (P07332 whole entry, looked up): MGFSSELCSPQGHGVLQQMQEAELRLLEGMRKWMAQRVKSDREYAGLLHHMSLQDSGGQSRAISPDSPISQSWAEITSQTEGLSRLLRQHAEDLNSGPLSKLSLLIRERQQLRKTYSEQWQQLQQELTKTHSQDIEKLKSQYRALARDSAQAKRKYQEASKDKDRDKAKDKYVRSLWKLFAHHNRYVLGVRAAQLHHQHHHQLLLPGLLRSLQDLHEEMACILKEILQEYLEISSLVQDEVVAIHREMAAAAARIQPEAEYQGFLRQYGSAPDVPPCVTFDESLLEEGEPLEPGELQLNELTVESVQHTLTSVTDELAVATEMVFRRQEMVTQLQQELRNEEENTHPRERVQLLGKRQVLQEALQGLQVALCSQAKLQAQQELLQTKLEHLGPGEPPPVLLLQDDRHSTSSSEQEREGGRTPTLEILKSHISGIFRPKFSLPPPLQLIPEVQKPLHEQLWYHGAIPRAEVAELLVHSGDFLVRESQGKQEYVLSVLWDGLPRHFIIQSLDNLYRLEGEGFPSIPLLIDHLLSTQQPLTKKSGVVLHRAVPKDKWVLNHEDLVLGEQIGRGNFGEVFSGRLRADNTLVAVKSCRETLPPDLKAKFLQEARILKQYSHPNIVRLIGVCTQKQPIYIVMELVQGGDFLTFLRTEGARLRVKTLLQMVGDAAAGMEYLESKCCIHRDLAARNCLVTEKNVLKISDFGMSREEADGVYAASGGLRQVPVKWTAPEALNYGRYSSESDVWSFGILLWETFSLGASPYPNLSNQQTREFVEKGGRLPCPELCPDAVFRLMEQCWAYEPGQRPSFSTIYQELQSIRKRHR
EPHB2, sequence (P29323 whole entry, looked up): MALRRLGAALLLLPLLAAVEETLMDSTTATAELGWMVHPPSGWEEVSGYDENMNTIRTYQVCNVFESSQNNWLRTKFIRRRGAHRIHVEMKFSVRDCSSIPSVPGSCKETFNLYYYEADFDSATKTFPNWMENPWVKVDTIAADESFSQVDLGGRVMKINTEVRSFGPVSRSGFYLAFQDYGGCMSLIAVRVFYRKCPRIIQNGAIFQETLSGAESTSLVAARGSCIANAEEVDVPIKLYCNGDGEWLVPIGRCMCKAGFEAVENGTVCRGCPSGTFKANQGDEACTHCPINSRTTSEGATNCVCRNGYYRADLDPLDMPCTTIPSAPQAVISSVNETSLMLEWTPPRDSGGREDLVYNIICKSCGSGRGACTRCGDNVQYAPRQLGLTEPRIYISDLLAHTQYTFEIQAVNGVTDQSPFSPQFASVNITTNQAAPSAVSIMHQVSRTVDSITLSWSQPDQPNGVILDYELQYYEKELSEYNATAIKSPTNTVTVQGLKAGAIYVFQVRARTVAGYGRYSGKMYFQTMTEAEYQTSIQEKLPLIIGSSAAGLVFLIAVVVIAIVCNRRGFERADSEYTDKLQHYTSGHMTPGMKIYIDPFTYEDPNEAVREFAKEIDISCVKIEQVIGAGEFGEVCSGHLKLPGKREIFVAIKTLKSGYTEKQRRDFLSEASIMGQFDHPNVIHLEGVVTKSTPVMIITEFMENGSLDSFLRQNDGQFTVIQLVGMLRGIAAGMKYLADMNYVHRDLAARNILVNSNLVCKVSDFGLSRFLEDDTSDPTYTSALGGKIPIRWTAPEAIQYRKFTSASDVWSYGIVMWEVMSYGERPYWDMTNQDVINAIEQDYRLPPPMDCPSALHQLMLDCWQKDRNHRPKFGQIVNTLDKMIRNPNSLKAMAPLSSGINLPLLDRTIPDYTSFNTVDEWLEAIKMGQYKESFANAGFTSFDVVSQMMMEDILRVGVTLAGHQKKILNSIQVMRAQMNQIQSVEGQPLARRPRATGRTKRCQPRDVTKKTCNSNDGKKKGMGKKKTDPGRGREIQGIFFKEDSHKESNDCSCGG
Grb2 SH2, sequence (P62993 whole entry, looked up): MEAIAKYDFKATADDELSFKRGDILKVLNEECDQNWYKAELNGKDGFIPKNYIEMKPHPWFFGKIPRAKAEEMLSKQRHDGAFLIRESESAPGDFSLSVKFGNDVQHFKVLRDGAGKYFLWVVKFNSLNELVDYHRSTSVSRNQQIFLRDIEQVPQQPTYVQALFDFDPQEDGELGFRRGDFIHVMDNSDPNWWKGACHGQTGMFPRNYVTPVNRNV

Sequence | SH2 binding enrichment (c-Src SH2) | SH2 binding enrichment (Grb2 SH2) | SH2 binding enrichment (SHP2-C SH2) | phosphorylation enrichment (EPHB1) | phosphorylation enrichment (Fyn) | phosphorylation enrichment (FGFR1) | phosphorylation enrichment (AncSZ) | phosphorylation enrichment (c-Src) | phosphorylation enrichment (Jak2) | phosphorylation enrichment (Hck) | phosphorylation enrichment (EPHB2) | phosphorylation enrichment (Fes) | phosphorylation enrichment (MERTK) | phosphorylation enrichment (FGFR3) | phosphorylation enrichment (Fer (mouse)) | phosphorylation enrichment (c-Abl (mouse))
YLQEIYNSNNQ [FGG_Y140] | 0.51 | 0.679 | 0.77 | 0.617 | 1.59 | 0.436 | 0.918 | 1.84 | 0.998 | 1.54 | 0.561 | 1.23 | 0.441 | 0.606 | 0.512 | 0.692
STSKTYVISQT [RBBP6_Y87_R91Q] | 0.418 | 0.827 | 0.578 | 0.391 | 0.446 | 0.431 | 0.591 | 0.466 | 0.559 | 0.372 | 0.418 | 0.694 | 0.44 | 0.429 | 0.328 | 0.615
TRSYKYLLLSM [NF1_Y491] | 1.15 | 1.64 | 2.46 | 0.754 | 0.477 | 0.433 | 0.833 | 0.494 | 0.887 | 0.422 | 0.69 | 0.832 | 0.485 | 0.624 | 0.434 | 0.852
EFSNQYKATIG [RAB7A_Y37_K32E] | 0.316 | 0.665 | 0.519 | 0.411 | 0.339 | 0.405 | 0.455 | 0.311 | 0.52 | 0.446 | 0.413 | 0.559 | 0.342 | 0.474 | 0.442 | 0.524
FSEVRYVKEPF [HIPK4_Y170_YF] | 0.487 | 1.03 | 0.783 | 0.403 | 0.513 | 0.586 | 0.748 | 0.44 | 0.584 | 0.483 | 0.527 | 0.831 | 0.414 | 0.884 | 0.505 | 0.676
PLQSEYSSITT [ITGB4_Y1760] | 0.952 | 0.696 | 0.57 | 3.14 | 1.58 | 1.08 | 1.89 | 1.77 | 0.814 | 1.92 | 2.18 | 2.13 | 1.77 | 1.58 | 1.83 | 1.28
LQLLGDRPVYS [CHST6_Y358_Y358D] | 0.335 | 0.772 | 0.792 | 2.17 | 1.7 | 1.63 | 1.88 | 1.35 | 2.78 | 1.37 | 2.16 | 3.27 | 0.683 | 1.64 | 1.53 | 1.3
SQSKGYRPKLY [SIPA1L3_Y1376_G1371S] | 0.447 | 0.701 | 0.662 | 0.336 | 0.344 | 0.424 | 0.719 | 0.408 | 0.496 | 0.361 | 0.337 | 0.651 | 0.51 | 0.33 | 0.364 | 0.519
QDRTYYERVRT [SPEN_Y633_S635R] | 2.47 | 0.792 | 2.04 | 0.732 | 1.35 | 0.749 | 0.947 | 1.79 | 0.556 | 5.76 | 0.767 | 0.728 | 0.629 | 0.697 | 2.62 | 0.639
DEGVNHFMSKG [FBXO8_Y156_Y156H] | 0.464 | 0.718 | 0.778 | 0.433 | 0.443 | 0.436 | 0.61 | 0.297 | 0.42 | 0.364 | 0.424 | 0.64 | 0.324 | 0.504 | 0.357 | 0.516
DVQNAYDSNHC [ZFYVE16_Y36] | 0.644 | 1.06 | 0.95 | 0.505 | 0.495 | 0.487 | 0.999 | 0.495 | 0.681 | 0.533 | 0.495 | 0.949 | 0.574 | 0.719 | 0.555 | 0.723
QEIATYPRLLE [KRT14_Y415_R416P] | 0.443 | 0.575 | 0.705 | 0.581 | 0.611 | 0.77 | 1.08 | 0.595 | 1.43 | 0.845 | 1.04 | 1.62 | 0.515 | 0.869 | 0.792 | 1.07
PEFINYHQHNS [BTK_Y361_L358F] | 0.608 | 0.659 | 0.659 | 0.299 | 0.552 | 0.821 | 0.709 | 1.03 | 0.933 | 0.485 | 0.515 | 0.607 | 0.507 | 0.947 | 0.335 | 0.491
MSSAGYRAAEG [COL6A3_Y543_T538M] | 0.396 | 0.788 | 0.609 | 0.389 | 0.387 | 0.425 | 0.468 | 0.404 | 0.529 | 0.375 | 0.334 | 0.495 | 0.372 | 0.444 | 0.379 | 0.497
SVMAEYGLYAA [VSX2_Y219_G223A] | 0.511 | 0.838 | 0.776 | 3.29 | 7.34 | 0.654 | 0.997 | 5.12 | 0.579 | 7.6 | 8.04 | 0.798 | 2.4 | 0.632 | 5.85 | 0.799
DLDLTSIFPNI [PTEN_Y27_Y27S_YF] | 0.48 | 0.722 | 0.524 | 0.402 | 0.475 | 0.301 | 0.861 | 0.358 | 0.726 | 0.497 | 0.485 | 0.814 | 0.447 | 0.578 | 0.441 | 0.677
CTTLHYNYMCN [TP53_Y234_I232L] | 4.31 | 1.21 | 2.06 | 0.808 | 0.492 | 0.811 | 0.858 | 0.508 | 0.827 | 0.547 | 0.618 | 1.01 | 0.558 | 0.745 | 1.41 | 0.675

Sequence | SH2 binding enrichment (c-Src SH2) | SH2 binding enrichment (Grb2 SH2) | SH2 binding enrichment (SHP2-C SH2) | phosphorylation enrichment (EPHB1) | phosphorylation enrichment (Fyn) | phosphorylation enrichment (FGFR1) | phosphorylation enrichment (AncSZ) | phosphorylation enrichment (c-Src) | phosphorylation enrichment (Jak2) | phosphorylation enrichment (Hck) | phosphorylation enrichment (EPHB2) | phosphorylation enrichment (Fes) | phosphorylation enrichment (MERTK) | phosphorylation enrichment (FGFR3) | phosphorylation enrichment (Fer (mouse)) | phosphorylation enrichment (c-Abl (mouse))
KYLENYYDLEK [MMP3_Y41_K45E] | 1.08 | 0.702 | 0.736 | 9.73 | 5.37 | 8.94 | 1.64 | 2.2 | 1.2 | 1.83 | 4.75 | 1.3 | 0.819 | 6.66 | 0.664 | 0.818
CPPKVYELMIA [ABL2_Y515_R519I] | 1.44 | 0.817 | 0.658 | 7.46 | 0.916 | 1.34 | 1.24 | 1.99 | 1.2 | 1.03 | 2.25 | 1.34 | 5.18 | 0.959 | 7.5 | 0.766
IFGASYVPFAA [RBM47_Y541_YF] | 0.676 | 0.889 | 0.932 | 0.432 | 0.609 | 0.589 | 0.775 | 1 | 1.27 | 0.92 | 0.53 | 0.783 | 0.71 | 0.636 | 0.542 | 0.496
SLFNGYVYSGV [NEIL3_Y71] | 1.91 | 1.03 | 2.5 | 0.555 | 5.75 | 0.624 | 1.04 | 4.91 | 1.58 | 4.49 | 0.66 | 0.978 | 0.929 | 0.634 | 0.864 | 0.695
YDYKKYGKGLR [ZNF445_Y433] | 0.749 | 0.939 | 1.02 | 0.318 | 0.323 | 0.371 | 0.41 | 0.346 | 0.444 | 0.366 | 0.276 | 0.517 | 0.358 | 0.536 | 0.373 | 0.48
QCTSAYLLQPE [NANS_Y188_P189L] | 0.473 | 0.793 | 0.922 | 0.555 | 1.01 | 0.733 | 1.41 | 1.4 | 1.19 | 0.596 | 0.727 | 1.49 | 0.785 | 1.21 | 0.611 | 1.24
PGVNYYFRVSA | 0.611 | 0.849 | 1.64 | 0.715 | 0.466 | 0.787 | 1.11 | 0.331 | 1.26 | 0.469 | 0.706 | 1.08 | 0.448 | 1.01 | 0.466 | 0.79
NSFKYYMSDDI [ATRX_Y204_C200S] | 1.05 | 0.943 | 0.746 | 0.503 | 0.434 | 0.567 | 0.87 | 0.499 | 0.871 | 0.443 | 0.542 | 1.01 | 0.451 | 0.659 | 0.501 | 0.627
LIFVSYDDWDY [GRIN2A_Y281_S278F] | 1.16 | 1.38 | 1.38 | 1.8 | 0.966 | 0.95 | 2.07 | 0.914 | 2.22 | 0.774 | 2.52 | 2.75 | 0.618 | 1.77 | 4.89 | 1.49
FATAGYGSLEA [EPHA10_Y959_A956T] | 0.564 | 0.901 | 0.933 | 0.368 | 0.441 | 0.52 | 0.833 | 0.637 | 0.691 | 0.437 | 0.45 | 0.94 | 0.425 | 0.663 | 0.37 | 0.569
GLALRYLSDHS [VWF_Y1584] | 0.444 | 0.732 | 0.557 | 0.518 | 0.465 | 0.565 | 0.873 | 0.539 | 0.898 | 0.549 | 0.471 | 0.838 | 0.38 | 0.583 | 0.723 | 0.501
PLCPDYQEPSR [DDR2_Y481_R478C] | 0.786 | 0.86 | 0.781 | 1.43 | 1.12 | 0.643 | 3.5 | 0.61 | 1.23 | 1.01 | 2.01 | 2 | 0.854 | 1.46 | 0.999 | 0.896
LSSEMYVKSYT [F5_Y2149] | 0.479 | 0.89 | 0.609 | 1.14 | 1.2 | 1.27 | 1.46 | 0.73 | 1.12 | 0.991 | 2.05 | 1.56 | 0.76 | 1.12 | 0.771 | 0.733
TALFIYIRPKA [OR10C1_Y258] | 0.494 | 0.891 | 0.721 | 0.406 | 0.55 | 0.556 | 1.23 | 0.304 | 0.945 | 0.523 | 0.697 | 1.22 | 0.388 | 0.712 | 0.508 | 0.624
YECKWYIPLTD [BCR_Y756_D752E] | 0.477 | 0.704 | 0.665 | 0.843 | 0.469 | 0.812 | 1.48 | 0.576 | 1.48 | 0.585 | 0.774 | 1.56 | 0.922 | 1.1 | 0.657 | 1
VMAALYGRLFE [BTD_Y536_T532M_YF] | 1.18 | 1.59 | 1.44 | 0.597 | 6.68 | 0.457 | 0.981 | 6.1 | 1.03 | 5.53 | 0.743 | 1.18 | 1.34 | 0.752 | 0.612 | 0.967

From the supplement of paper PMC10065799, “High-throughput profiling of sequence recognition by tyrosine kinases and SH2 domains using bacterial peptide display” (eLife, 2023)
